Test results taken from the nanobody polyreactivity screen of Harvey et al. (2022).

Test: yeast display, Sf9 membrane polyspecificity reagent, FACS + sequencing; frameworks hold sequencing errors
Summary of the method: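 Nanobodies from a synthetic yeast display library (Saccharomyces cerevisiae BJ5465), induced 36–48 hours with galactose, were stained 1 hour at 4 °C with 10% biotinylated, detergent-solubilized Sf9 membrane reagent, enriched on streptavidin microbeads, then FACS-sorted. Anti-HA (expression) and streptavidin (reagent binding) fluorescence set low and high (top ~1%) gates. Polyreactivity labels come from the gate of origin. Genes were colony-PCR amplified, MiSeq 2 × 250 sequenced and filtered by CDR length.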
With “QVQLVESGGGLVQAGGSLRLSCAASGSTFQSYTMGWYRQAPGKERELVATITSTSSTSYADSVKGRFTISRDNAKNTVYLQMNSLKPEDTAVYYCNAEGLHWGQVTQVTVSS” the “polyreactivity (PSR sort gate)” value was “low polyreactivity”.
In the case of “QVQLVESGGGLVQAGGSLRLSCAASGSTFQVYAMGWYRQAPGKERELVASITSGGITYYADSVKGRFTISRDNAKNTVYLQMNSLKPEDTAVYYCAVDIRQSGELQRLFLYDYWGQGTQVTVSS”, the “polyreactivity (PSR sort gate)” value is reported as “low polyreactivity”.
In the case of “QVQLVESGGGLVQAGGSLRLSCAASGSTFQVYTKGWYIQAPGKEREFVASISWSGSSTYYADSVKGRFTISRDNAKNTVYLQMNSLKPEDTAVYYCAARARIKYLADPGYYWGQGTQVTVSS”, the “polyreactivity (PSR sort gate)” value is reported as “high polyreactivity”.
With “QVQLVESGGGLVQAGGSLRLSCAASGSTFQYNAMGWYRQAPGKERELVAAITGSGGSTYYADSVKGRFTISRDNAKNTVYLQMNSLKPEDTAVYYCAKLVRSFNWVLARHKYDYWGQGTQVTVSS” the “polyreactivity (PSR sort gate)” value was “low polyreactivity”.
For “QVQLVESGGGLVQAGGSLRLSCAASGSTFQYYAMGWSRQAPGKERELVAAISYGGSRTYYADSVKGRFTISRDNAKNTVYLQMNSLKPEDTAVYYCAKEKYRALAPYYYWGQGTQVTVSS”, the “polyreactivity (PSR sort gate)” value was “high polyreactivity”.
For “QVQLVESGGGLVQAGGSLRLSCAASGSTFQYYAMGWYRQAPGKERELVAAISSGGSTYYADSVKGRFTISRDNAKNTVYLQMNSLKPEDTAVYYCAADFVKRQANRQFDYWGQGTQVTVSS”, the “polyreactivity (PSR sort gate)” value was “high polyreactivity”.
In the case of “QVQLVESGGGLVQAGGSLRLSCAASGSTFQYYAMGWYRQAPGKERELVATISTSGGRTYYADSVKGRFTISRDNAKNTVYLQMNSLKPEDTAVYYCAKRRYSTYYWTFDYWGQGTQVTVSS”, the “polyreactivity (PSR sort gate)” value is reported as “high polyreactivity”.
For “QVQLVESGGGLVQAGGSLRLSCAASGSTFRANAMGWYRQAPGKERELVAAISWSGGRTYYADSVKGRFTISRDNAKNTVYLQMNSLKPEDTAVYYCAAVTTQYIYSVPYYYWGQGTQVTVSS”, the “polyreactivity (PSR sort gate)” value was “high polyreactivity”.
With “QVQLVESGGGLVQAGGSLRLSCAASGSTFRCYAMGGYRQATGKERELVAAIRSAGSTDYADSVKGRFTISRDNAKITVYLQMNILKQEDTAVYYCAAYFRYRSSRYGYWGQGTQVTVSS” the “polyreactivity (PSR sort gate)” value was “high polyreactivity”.
For “QVQLVESGGGLVQAGGSLRLSCAASGSTFRFNTMGWYRQAPGKERELVAAISYSGGSTYYADSVKGRFTISRDNAKNTVYLQMNSLKPEDTAVYYCAVQAWYLTYSYPYSKGYYWGQGTQVTVSS”, the “polyreactivity (PSR sort gate)” value was “high polyreactivity”.
For “QVQLVESGGGLVQAGGSLRLSCAASGSTFRFNTMGWYRQAPGKERGLVACIAAGTTTNYADSVKGRFTISRDNAKNTVYLQMNSLKPEDAAVYYCAALNAFNTGHWYWGQGTQVTVSS”, the “polyreactivity (PSR sort gate)” value was “low polyreactivity”.
For “QVQLVESGGGLVQAGGSLRLSCAASGSTFRFYAMGWYRQAPGKERELVAVISFNDGSTYYADSVKGRFTISRDNAKNTVYLQMNSLKPEDTAVYYCATDELDSWWYEYEYWGQGTQVTVSS”, the “polyreactivity (PSR sort gate)” value was “low polyreactivity”.
In the case of “QVQLVESGGGLVQAGGSLRLSCAASGSTFRFYAMGWYRQEPGKERELVAAITSSGGSTYYADSVKGRFTISRDNAKNTVYLQMNSLKPEDTAVYYCNAYPNPVSYELDYWGQGTQVTVSS”, the “polyreactivity (PSR sort gate)” value is reported as “low polyreactivity”.
In the case of “QVQLVESGGGLVQAGGSLRLSCAASGSTFRGYAMGSYRQAPGKETELVATITSGGSTNYADSVKGRFTISRDNAKNTVSLQMNSLKPEDTAVYYCNARWVPSYWKYFHANYGYWGQGTQVTVSS”, the “polyreactivity (PSR sort gate)” value is reported as “high polyreactivity”.
With “QVQLVESGGGLVQAGGSLRLSCAASGSTFRGYAMGWYRQAPGKERELVAAISRADITNYADSVKGRFTISRDNAKNTVYLQMNSLKPEDTAVYYCNAGVGARESDYWGQGTQVTVSS” the “polyreactivity (PSR sort gate)” value was “low polyreactivity”.
With “QVQLVESGGGLVQAGGSLRLSCAASGSTFRGYAMGWYRQAPGKERELVATITSGGSTNYADSVKGRFTISRDNGKNTVYLQMNSLKPEDTAVYYCNARWVPRYWYDYWGQGTQVTVSS” the “polyreactivity (PSR sort gate)” value was “high polyreactivity”.
For “QVQLVESGGGLVQAGGSLRLSCAASGSTFRGYAMGWYRQATGKERELVAAISSSGGRTYYADSVKGRFTISRDNAKNPVYLQMNSLKREDTAVYYCNAASKNSVRYAYQNYDYRGQGTQVTVSS”, the “polyreactivity (PSR sort gate)” value was “high polyreactivity”.
With “QVQLVESGGGLVQAGGSLRLSCAASGSTFRGYAMGWYRQVPGKERELVADISWSGTSTYYADSVKGRFTISRDNAKNTFYLQLNSVIPEDTAVYYCAKGGRDRSRKYYYWGQGTQVTVSS” the “polyreactivity (PSR sort gate)” value was “high polyreactivity”.
In the case of “QVQLVESGGGLVQAGGSLRLSCAASGSTFRGYTMGWYRQAPGKEREFVATISSRGGSTNYADSVKGRFTISRDNAKNTVYLQMNSMKPEDTAVYYCNVRRVWWEWPRGDSWGQGTQVTVSS”, the “polyreactivity (PSR sort gate)” value is reported as “high polyreactivity”.
For “QVQLVESGGGLVQAGGSLRLSCAASGSTFRGYVMGWYRQAPGKERELVAAISRSGTSTYYADSVKGRFTISRDNAKNTVYLQMNSLKPEDTAVYYCAAQLYGHGEDYWGQGTQVTVSS”, the “polyreactivity (PSR sort gate)” value was “high polyreactivity”.
With “QVQLVESGGGLVQAGGSLRLSCAASGSTFRHYAMGWYRQAPGKERELVAAISSRGGSTYYADSVKGRFTISRDNAKNTVYLQMNSLKPEDTAVYYCNVVGYQRPSYRHMDYWGQGTQVTVSS” the “polyreactivity (PSR sort gate)” value was “high polyreactivity”.
In the case of “QVQLVESGGGLVQAGGSLRLSCAASGSTFRIYAMRSYRQAPGKERELGARISWNGGRTYYADSVKGRFTISRVNAKNTVYLQMNSLKPEDTAGYYCNALVPPGYDYWGQGTQVSVSS”, the “polyreactivity (PSR sort gate)” value is reported as “high polyreactivity”.
In the case of “QVQLVESGGGLVQAGGSLRLSCAASGSTFRIYTMGWYRQAPGKERELVAGISSSGNTNYADSVKGRFTISRDNAKNTVYLQMNSLKPEDTAVYYCNAASLKFTSPVRFGYWGQGTQVTVSS”, the “polyreactivity (PSR sort gate)” value is reported as “high polyreactivity”.
For “QVQLVESGGGLVQAGGSLRLSCAASGSTFRKYAMGWYRQAPGKEREFVAAITWSTGTTYYADSVKGRFTISRDNAQNTVYLQMNSLKPEDTAVYYCSADSKPPHELYESIEHESWGQGTQVTVSA”, the “polyreactivity (PSR sort gate)” value was “low polyreactivity”.
For “QVQLVESGGGLVQAGGSLRLSCAASGSTFRKYAMGWYRQAPGKERELVAAISRGGDSTYYADSVKGRFTISRENAKNTVYLQMNSLKPEDTAVYYCAADTRPGYSGFEYRGQGTQVTVSS”, the “polyreactivity (PSR sort gate)” value was “high polyreactivity”.
For “QVQLVESGGGLVQAGGSLRLSCAASGSTFRKYAMGWYSQAPGKERELVAAIRRNGVSTYYADSVKGRFTISLDNAKNTVYLQMNSLKPEDTAVYYCNARTKPDYDWGQGTQVTVSS”, the “polyreactivity (PSR sort gate)” value was “high polyreactivity”.
With “QVQLVESGGGLVQAGGSLRLSCAASGSTFRLYAMGWYRQAPGKERELDAAISGSGGSTYYADSVKGRFTISRDYEKNTVYLQMNSLKPVDTAVYYCAAEVVRRYYAGRGYWGHGTQVTVSS” the “polyreactivity (PSR sort gate)” value was “high polyreactivity”.
For “QVQLVESGGGLVQAGGSLRLSCAASGSTFRLYTMGWYRPAPVKERELVAAITSGGSTNYADSVKGRFTISRDNAKNTVYLQMNSLKPEDTSVYYCAIAKRFPSFDYWGQGTQVTVSS”, the “polyreactivity (PSR sort gate)” value was “low polyreactivity”.
For “QVQLVESGGGLVQAGGSLRLSCAASGSTFRPYAMGWYRQAPGKEMELVARMTGSGDSTYYADSVKGRFTISRDNAKNTVYLQMNSLKPEDTAVYYCNALYTSLRKYNYWGQGTQVTVSS”, the “polyreactivity (PSR sort gate)” value was “low polyreactivity”.
With “QVQLVESGGGLVQAGGSLRLSCAASGSTFRPYAMGWYRQAPGKERDLVAAISSSGGSTYYADSVKGRFTISRDNAKNTVYLQMNSLKPEDTAVYYCAAVRRYRYPEYNHWGQGTQVTVSS” the “polyreactivity (PSR sort gate)” value was “low polyreactivity”.
In the case of “QVQLVESGGGLVQAGGSLRLSCAASGSTFRPYAMGWYRQAPGKERELVAAISSGDSTYYADSVKGRFTISRDNAKNTVYLQMNSPKREDTAVYYCAKRNYWHRGGGYWGQGTQVTVSS”, the “polyreactivity (PSR sort gate)” value is reported as “high polyreactivity”.
In the case of “QVQLVESGGGLVQAGGSLRLSCAASGSTFRPYAMGWYRQAPGKERELVAAISWSGGRTYYADSVKGRFTISRDNAKNNVYLQMNSLKPEDTAVYYCNRAGRQPKNTYDYWGQGTQVTVSS”, the “polyreactivity (PSR sort gate)” value is reported as “high polyreactivity”.
In the case of “QVQLVESGGGLVQAGGSLRLSCAASGSTFRQNAMGWYRQAPGKERELVAAISGTAGSTYYADSVKGRFTISRDNAKNTVYLQMNSLKPEDTAVYYCAKRKITKYGYGYWGQGTQVTVSS”, the “polyreactivity (PSR sort gate)” value is reported as “high polyreactivity”.
With “QVQLVESGGGLVQAGGSLRLSCAASGSTFRQYAMGWYRQAPGKERELVAAITWRGDNTYYADSVKGRFTISRDNAKNTVYLQMNSLKPEDTAVYYCAARWSYRLYWGYGYWGQGTQVTLSS” the “polyreactivity (PSR sort gate)” value was “low polyreactivity”.
For “QVQLVESGGGLVQAGGSLRLSCAASGSTFRQYSMGWYRQAPGKERELVAAISWSGGSTYYADSVKGRFTISRDNAKNTVYLQMNSLKPEDTAVYYCAAGRGGHRYKVGYWGQGTQVTVSS”, the “polyreactivity (PSR sort gate)” value was “high polyreactivity”.
With “QVQLVESGGGLVQAGGSLRLSCAASGSTFRRNAMGWYRQAPGKEREFVAAISSRGGSTYYADSVKGRFTISRDNAKNTVYLQMNSLKPEDTAVYYCAADKASRHSNPFYYWGQGTQVTVSS” the “polyreactivity (PSR sort gate)” value was “high polyreactivity”.
With “QVQLVESGGGLVQAGGSLRLSCAASGSTFRRNAMGWYRQAPGKERELVAAIDKSGGTTYYADSVKGRFTISRDNAKNTVYLQMNSLKPEDTAVYYCAVRSYLSSRGSHDYWGQGTQVTVSS” the “polyreactivity (PSR sort gate)” value was “low polyreactivity”.
For “QVQLVESGGGLVQAGGSLRLSCAASGSTFRRNAMGWYRQAPGKERELVAAISRSGGSTYYADSEKGRFTISRDNAKNTVYLQMNSLKPEDTVVYYCAADAARTSHWSGDYWGQGTQVTVSS”, the “polyreactivity (PSR sort gate)” value was “high polyreactivity”.
For “QVQLVESGGGLVQAGGSLRLSCAASGSTFRRYAMGWYRPAPGKERELVAAISRSGGTTYYADSVKGRFTISRDNAKNTVYFQMNSLKPEDTAVYYCNARYPVVRYDYWGQGTQVTVSS”, the “polyreactivity (PSR sort gate)” value was “high polyreactivity”.
In the case of “QVQLVESGGGLVQAGGSLRLSCAASGSTFRRYAMGWYRQAPGKEREFVAAITWSGGNTYADSVKGRFTISRDNAKNTVYLQMNSLKPEDTAVYYCAVQLVYDHYRYDYWGQGTQVTVSS”, the “polyreactivity (PSR sort gate)” value is reported as “high polyreactivity”.
In the case of “QVQLVESGGGLVQAGGSLRLSCAASGSTFRRYAMGWYRQAPGKERELVAAITWRGGSTYYADSVKGRFTISRDNAKNTVFLQMNSLKPEDTAVYYCATSDYYYDYWGQGTQVTVSS”, the “polyreactivity (PSR sort gate)” value is reported as “high polyreactivity”.
For “QVQLVESGGGLVQAGGSLRLSCAASGSTFRRYAMGWYRQAPGKERELVADISSGGSTYYADSVKGRFTISRDNAKNTVYLQMNSLKPEDTAVYYCNAKTFYYGSRFRRAEYDYWGQGTQVTLSS”, the “polyreactivity (PSR sort gate)” value was “low polyreactivity”.
In the case of “QVQLVESGGGLVQAGGSLRLSCAASGSTFRRYTMGWYRQAPGKERELVAAITWSGGSTYYADSVKGRFTISRDNAKNTVYLQMNSLKPEDTAVYYCAADRPYHTREYYYWGQGTQVNVSS”, the “polyreactivity (PSR sort gate)” value is reported as “low polyreactivity”.
